In paper PMC9512702 (2022) one finds koff data, which are given here for 2 molecules.

Substitutions are numbered along the chain they refer to. Where two headings read alike, the source gives them in different places.

Experiment [1] concerns the target T1, mammalian expressed RBD (mRBD) of SARS-CoV-2 spike (SARS-CoV-2, UniProt P0DTC2 319-541). Nature of the experiment: SPR. (In SPR one partner is held on a chip, and binding of the other changes the refractive index at the surface.)
The target of experiment [2] is T1, mammalian expressed RBD (mRBD) of …. Put plainly: SPR. The source holds these as a separate data set.

B1: SIH-14 (designed binder)
chain: DKEWILQKIYEAMRLLDELADAEASMRVSDAIYEFMKK
Usually koff stands for the rate constant with which the complex falls apart. High values mean a short-lived complex, low ones a long-lived complex. B1 returned a koff in experiment [1] of 0.00028 s⁻¹.

B2: SIH-15 (designed binder)
chain: B1 chain with A12E, A31E
In experiment [2], B2 registered an off-rate (koff) of 0.00025 s⁻¹.
